Measurements: US20220323445A1, “REDUCING IMMUNOGENICITY TO PEGLOTICASE” (Horizon Therapeutics Ireland DAC, priority 2020, published 2022)

Tested on: serum uric acid (sUA)
Experiment: Serum uric acid (sUA) levels and sUA responders, open-label study of pegloticase with MTX (NCT03635957)
Assay type: in vivo, human
Description: The primary objective is to estimate the response rate during Month 6 (Weeks 20, 22, and 24), as measured by the sustained normalization of serum uric acid (SUA) to <6 mg/dL for at least 80% of the time during Month 6 in subjects receiving KXX with MTX.
The primary efficacy outcome endpoint is the sustained normalization of SUA to <6 mg/dL for at least 80% of the time during month 6 (weeks 20, 22, and 24) in subjects receiving KXX with MTX. This is slightly below the urate solubility threshold and this threshold has been the accepted standard for nearly all modern gout trials. Participants who achieve this endpoint were classified as “responders.” Serum uric acid (SUA) responders may also be defined as participants achieving and maintaining SUA <6 mg/dL for at least 80% of the time during Month 6 (Weeks 20, 22, and 24).
Blood samples may be collected prior to each pegloticase infusion for measurement of SUA levels using the Beckman Coulter AU System Uric Acid procedure. Participants were declared “non-responders” if there were SUA measures >6 mg/dL at 2 consecutive study visits beginning with the week 2 visit. […] If the SUA goal is not maintained before or at the 12-week mark, it was assumed that the participant had developed clinically relevant anti-pegloticase antibody and they received no further infusions. This assumption and subsequent discontinuation of pegloticase was consistent with the protocol of large phase III randomized controlled trials and the product label. A formal stopping rule was 2 occasions of SUA levels of greater than 6 mg/dL.
Clinical Chemistry—Blood samples were collected prior to each pegloticase infusion for measurement of SUA levels (primary efficacy parameter) using the Beckman Coulter AU System Uric Acid procedure. In this procedure uric acid is converted to hydrogen peroxide. Hydrogen peroxide reacts with reagent to produce a chromophore which is read bichromatically at 660/800 nm. The amount of dye formed is proportional to the uric acid concentration in the sample.
Serum samples for measurement of SUA levels were collected at the Screening Visit, the Week −4 Visit (prior to the first dose of MTX), and the Week −2 Visit during the MTX Run-in Period; within 48 hours prior to each pegloticase infusion and after the end of each pegloticase infusion prior to discharge from the site during the Pegloticase+IMM Period; at the non-infusion Week 52/End of Study/Early Termination Visits and at the Post Treatment 3 and 6 Month Follow-up Visits. Additional serum samples for SUA levels were collected at optional non-infusion (Frequent Sampling) Visits at Weeks 1 and 7. […] Subjects with SUA level >6 mg/dL at 2 consecutive visits beginning at Week 2 visit discontinued treatment, completed the End of Pegloticase Infusion Visit procedures within 2 weeks and continued the subject visits according to the protocol (without treatment).
Efficacy analyses were performed using the modified intention-to-treat (mITT) population, defined as all enrolled subjects who received ≥1 dose of pegloticase. The proportion of Month 6 responders was summarized, along with a 95% confidence interval for the proportion. The proportion of Month 3 and overall (Months 3 and 6 combined) responders was analyzed similarly.
A subject was declared a non-responder if the subject had SUA level >6 mg/dL at 2 consecutive study visits beginning with the Week 2 Visit. In addition, a subject who withdraws from study treatment for any reason after the first dose of pegloticase in the KXX+MTX Period and prior to Month 6 (for the primary endpoint) or Month 3 (for the secondary endpoint) was considered a non-responder if SUA values were not collected at the planned time points.
Patients were administered oral MTX (15 mg/week) and folate (1 mg/day) 4 weeks prior to the first pegloticase infusion (Day 1) and throughout the pegloticase treatment period. […]

[1] = Week 12 - Post-Infusion, mITT, n=10
[2] = Week 12 - Pre-Infusion, Month 6 sUA Responders
[3] = Week 12 - Pre-Infusion, mITT, n=11
[4] = Week 14 - Post-Infusion, Month 6 sUA Responders
[5] = Week 14 - Post-Infusion, mITT, n=10
[6] = Week 14 - Pre-Infusion, Month 6 sUA Responders
[7] = Week 14 - Pre-Infusion, mITT, n=11
[8] = Week 16 - Post-Infusion, Month 6 sUA Responders
[9] = Week 16 - Post-Infusion, mITT, n=11
[10] = Week 16 - Pre-Infusion, Month 6 sUA Responders
[11] = Week 16 - Pre-Infusion, mITT, n=11
[12] = Week 18 - Post-Infusion, Month 6 sUA Responders
[13] = Week 18 - Post-Infusion, mITT, n=11

B1: pegloticase (protein)
chain: TYKKNDEVEFVRTGYGKDMIKVLHIQRDGKYHSIKEVATTVQLTLSSKKDYLHGDNSDVIPTDTIKNTVNVLAKFKGIKSIETFAVTICEHFLSSFKHVIRAQVYVEEVPWKRFEKNGVKHVHAFIYTPTGTHFCEVEQIRNGPPVIHSGIKDLKVLKTTQSGFEGFIKDQFTTLPEVKDRCFATQVYCKWRYHQGRDVDFEATWDTVRSIVLQKFAGPYDKGEYSPSVQKTLYDIQVLTLGQVPEIEDMEISLPNIHYLNIDMSKMGLINKEEVLLPLDNPYGKITGTVKRKLSSRL
modifications: monomethoxy PEG conjugated; Krystexxa Sequence
notes: covalent conjugate of uricase produced by a genetically modified strain of Escherichia coli and monomethoxypoly (ethylene glycol)
[1]
  sUA Change from Baseline, Mean (SD): −9.13 (2.911) mg/dL
  sUA Change from Baseline, Median: -9.05 mg/dL
  sUA Observed, Mean (SD): 0.30 (0.000) mg/dL
  sUA Observed, Median: 0.30 mg/dL
[2]
  sUA < 6 mg/dL, %: (100%)
  sUA Change from Baseline, Mean: -8.98 mg/dL
  sUA Change from Baseline, Median: -8.80 mg/dL
  sUA Observed, Mean: 0.30 mg/dL
  sUA Observed, Median: 0.30 mg/dL
[3]
  sUA < 6 mg/dL, n (%): 11 (100%)
  sUA Change from Baseline, Mean (SD): −8.98 (2.806) mg/dL
  sUA Change from Baseline, Median: -8.80 mg/dL
  sUA Observed, Mean (SD): 0.30 (0.015) mg/dL
  sUA Observed, Median: 0.30 mg/dL
[4]
  sUA < 6 mg/dL, %: (100%)
  sUA Change from Baseline, Mean: -9.01 mg/dL
  sUA Change from Baseline, Median: -9.05 mg/dL
  sUA Observed, Mean: 0.30 mg/dL
  sUA Observed, Median: 0.30 mg/dL
[5]
  sUA < 6 mg/dL, n (%): 10 (100%)
  sUA Change from Baseline, Mean (SD): −9.01 (2.959) mg/dL
  sUA Change from Baseline, Median: -9.05 mg/dL
  sUA Observed, Mean (SD): 0.30 (0.000) mg/dL
  sUA Observed, Median: 0.30 mg/dL
[6]
  sUA < 6 mg/dL, %: (100%)
  sUA Change from Baseline, Mean: -8.97 mg/dL
  sUA Change from Baseline, Median: -8.80 mg/dL
  sUA Observed, Mean: 0.30 mg/dL
  sUA Observed, Median: 0.30 mg/dL
[7]
  sUA < 6 mg/dL, n (%): 11 (100%)
  sUA Change from Baseline, Mean (SD): −8.97 (2.810) mg/dL
  sUA Change from Baseline, Median: -8.80 mg/dL
  sUA Observed, Mean (SD): 0.30 (0.000) mg/dL
  sUA Observed, Median: 0.30 mg/dL
[8]
  sUA < 6 mg/dL, %: (100%)
  sUA Change from Baseline, Mean: -8.97 mg/dL
  sUA Change from Baseline, Median: -8.80 mg/dL
  sUA Observed, Mean: 0.30 mg/dL
  sUA Observed, Median: 0.30 mg/dL
[9]
  sUA < 6 mg/dL, n (%): 11 (100%)
  sUA Change from Baseline, Mean (SD): −8.97 (2.810) mg/dL
  sUA Change from Baseline, Median: -8.80 mg/dL
  sUA Observed, Mean (SD): 0.30 (0.000) mg/dL
  sUA Observed, Median: 0.30 mg/dL
[10]
  sUA < 6 mg/dL, %: (100%)
  sUA Change from Baseline, Mean: -8.97 mg/dL
  sUA Change from Baseline, Median: -8.80 mg/dL
  sUA Observed, Mean: 0.30 mg/dL
  sUA Observed, Median: 0.30 mg/dL
[11]
  sUA < 6 mg/dL, n (%): 11 (100%)
  sUA Change from Baseline, Mean (SD): −8.97 (2.810) mg/dL
  sUA Change from Baseline, Median: -8.80 mg/dL
  sUA Observed, Mean (SD): 0.30 (0.000) mg/dL
  sUA Observed, Median: 0.30 mg/dL
[12]
  sUA < 6 mg/dL, %: (100%)
  sUA Change from Baseline, Mean: -8.97 mg/dL
  sUA Change from Baseline, Median: -8.80 mg/dL
  sUA Observed, Mean: 0.30 mg/dL
  sUA Observed, Median: 0.30 mg/dL
[13]
  sUA < 6 mg/dL, n (%): 11 (100%)
  sUA Change from Baseline, Mean (SD): −8.97 (2.810) mg/dL
  sUA Change from Baseline, Median: -8.80 mg/dL
  sUA Observed, Mean (SD): 0.30 (0.000) mg/dL
  sUA Observed, Median: 0.30 mg/dL
Week 18 - Pre-Infusion, Month 6 sUA Responders
  sUA < 6 mg/dL, %: (100%)
